As usually defined, the Kd is a measure of binding affinity in units of concentration. A higher Kd goes with weaker binding.

In this experiment the target is Catalytic Domain of Human HDAC7 (cdHDAC7), biotinylated (human). The experiment can be described thus: BLI.

Values joined by “and” are separate entries in the source; they are usually repeats but may differ in a detail not shown here. Equal values may be shown once.

On to “Ac-Leu-Gly-Lys(Ac)-NH2 (LGKAc), acetylated peptide derived from histone 4 lysine 12”, for which the Kd was 720 nM and 1000 nM.

The record behind these values is PMC9450512.
